Results from patent publication US7943356B2, “Alcohol dehydrogenase for the stereoselective production of hydroxy compounds” (Codexis, Inc., priority 2004, dated 2011).
Read-outs that look alike come from different tables or passages of the source.

What was measured:
ADH T = assay: Relative activities of purified ADH T in the reduction of different substrates; type: biochemical, Thermoanaerobacter species
[1] = Activity of the isolated ADH T at different pH values; type: biochemical
Method: The activities were determined by photometric measurement of the decrease in the cofactor. […] The measurement batch for ADH-TE also contained 1 mM of MgCl2.
(§1) The decrease in NADPH was followed at 340 nm for one minute after addition of the enzyme. Sufficient enzyme was added for the activity to be between 0.5 and 1.5 U/ml and the measurement volume was 1 ml.
(§2) 1 U corresponds to the quantity of enzyme which converts 1 μmol of substrate per minute.

[2] = Activity with diketone 2,5-hexanedione (photometric NADPH decrease); type: biochemical
Method: (§3) The comparison of the activity of the ADH T with that of the secondary alcohol dehydrogenase from Thermoanaerobacter ethanolicus 39E (U.S. Pat. No. 5,908,924) with regard to the conversion of diketones is interesting (Table 6).
(§4) The activities were determined by photometric measurement of the decrease in the cofactor. Measurement batch: 50 mM Tris-Cl, pH 7.0 with 10 mM substrate and 0.2 mM NADPH. The measurement batch for ADH-TE also contained 1 mM of MgCl2.
as §1, §2

[3] = Thermal stability of ADH T; type: physicochemical; conditions: after 12 hrs at 50° C.
Method: The thermal stability is also very good. The activity of the ADH T was still at 75% of the starting value even after 12 hrs at 50° C.

[4] = Conversion of 2-pentanone with substrate-coupled cofactor regeneration (isopropanol); type: biochemical; conditions: 200 mM 2-pentanone, 3 U/ml ADH T, 0.05 mM NADP
Text: In fact, it can be shown that the enantioselectivity in the reduction of critical ketones such as 2-pentanone or 2-butanone by substrate-coupled cofactor regeneration with isopropanol is also far better than with the use of enzyme-coupled cofactor regeneration.
Also, the achievable enantiomeric purity of the product depends on the quantity of isopropanol used (Table 9).

[5] = Storage stability of the isolated ADH T (residual activity); type: physicochemical; conditions: for Activity Day 5 / Activity Day 10 / Activity Day 20 / Activity Day 40 / Activity Start: storage at 4° C.
Method: In spite of its thermal stability, the isolated ADH T cannot be stored for long under standard conditions (50 mM Tris-Cl, pH 7.0). The half-life is only ca. 4 days. By addition of e.g. NaCl, the half-life can be increased to more than 40 days (Table 2).
as §4, §1, §2

[6] = Activity with standard substrate acetone (photometric NADPH decrease); type: biochemical; conditions: acetone (10 mM); ADH T 1.5 mg/ml, ADH-TE 2.45 mg/ml; ADH-TE batch also 1 mM MgCl2
Method: as §3, §4, §1, §2

[7] = Reduction of 2,5-hexanedione to the diol, conversion and ee/de; type: biochemical; conditions: after 48 hrs
Text: The ee/de value of 100% signifies absolute enantiomeric and diastereomeric purity of the diols prepared. By means of the invention described here, the ADH T can for the first time be obtained in sufficient quantity to produce enantiomerically pure diols on the kilogram scale.

[8] = Activity with diketone 2,4-pentanedione (photometric NADPH decrease); type: biochemical
Method: as §3, §4, §1, §2

[9] = substrate 10 mM, activity with acetone set at 100%, purified ADH T
[10] = substrate 10 mM, activity with acetone set at 100%, […]
[11] = relative to standard substrate acetone (10 mM)

O=C1CCCCC1=O [1,2-cyclohexanedione]
Relative activity (ADH T; [9]): 5%

CC(=O)CC(C)=O [2,4-pentanedione]
Relative activity (ADH T; [9]): 77%

CC(=O)CCC(C)=O [2,5-hexanedione]
Relative activity (ADH T; [9]): 74%

CC(=O)c1ccccn1 [2-acetylpyridine]
Relative activity (ADH T; [9]): 36%

CCC(C)=O [2-butanone]
Relative activity (ADH T; [10]): 72%

CCCCC(C)=O [2-hexanone]
Relative activity (ADH T; [10]): 30%

CCC(C)C=O (stereo not shown) [2-methylbutyraldehyde]
Relative activity (ADH T; [9]): 52%

CCCCCCC(C)=O [2-octanone]
Relative activity (ADH T; [9]): 9%

CCC(=O)C(=O)O [2-oxobutyric acid]
Relative activity (ADH T; [9]): 28%

CCCC(C)=O [2-pentanone]
Relative activity (ADH T; [9]): 31%

C#CC(C)=O [3-butyn-2-one]
Relative activity (ADH T; [10]): 76%

CCCCCC(=O)CC [3-octanone]
Relative activity (ADH T; [9]): 26%

CC(=O)CCCl [4-chloro-2-butanone]
Relative activity (ADH T; [10]): 66%

CC(=O)CCO [4-hydroxy-2-butanone]
Relative activity (ADH T; [10]): 13%

CC=O [Acetaldehyde]
Relative activity (ADH T; [10]): 101%

CC(C)=O [Acetone]
Relative activity (ADH T; [10]): 100%

CC(=O)c1ccccc1 [Acetophenone]
Relative activity (ADH T; [9]): 28%

CC(=O)C(C)=O [Diacetyl]
Relative activity (ADH T; [9]): 154%

CCOC(=O)CC(=O)CCl [Ethyl 4-chloroacetoacetate]
Relative activity (ADH T; [10]): 45%

CCOC(=O)CC(C)=O [Ethyl acetoacetate]
Relative activity (ADH T; [9]): 22%

O=C(CCl)c1ccccc1 [Phenacyl chloride]
Relative activity (ADH T; [10]): 25%

CC(=O)c1ccc(Cl)cc1 [p-chloroacetophenone]
Relative activity (ADH T; [10]): 17%

Monochloroacetone
Relative activity (ADH T): 71%

B1: ADH T: thermally stable, (S)-selective NADP-dependent alcohol dehydrogenase from Thermoanaerobacter species (SEQ ID NO: 2), recombinant (protein)
chain: MKGFAMLSIGKVGWIEVEKPNPGPFDAIVRPLAVAPCSSDIHTVFEGGLGELHNAVLGHEAVGEVVEVGSEVKDFKPGDKVVIPAITPDWRTLDVQRGYHQQSGGMLAGYKFTAQKPGVFAEYIYVNDADMNLAHLPDGISLEAAVMITDMMTTGFHGAELAEIELGATVAVLGIGPVGLMAVAGAKLRGAGRIIAVGSRPVCVDAAKYYGATDIVNYKNGPIDSQIMDLTKGKGVDAAIIAGGNVDIMATAVKIVKPGGTIANVNYFGEGDVLPVPRLEWGCGMAHKAIKGGLCPGGRLRMERLIDLVFYKRVDPSKLVTHVFQGFDNIEKALMLMKDKPKDLIKPVVILA
modifications: Thermoanaerobacter species
pH optimum [1]: 7.0
Measured activity ([1]; pH 5.0): 53 U/ml
Measured activity ([1]; pH 6.0): 134 U/ml
Relative activity ([1]; pH 6.5): 66%
Measured activity ([1]; pH 7.0): 192 U/ml
Relative activity ([1]; pH 7.0): 100%
Relative activity ([1]; pH 7.5): 74%
Measured activity ([1]; pH 8.0): 146 U/ml
Measured activity ([1]; pH 9.0): 13 U/ml
spec. activity [2]: 52.7 U/mg
rel. activity [2, 11]: 74%
activity remaining, of the starting value [3]: 75%
Conversion ([4]; 100 mM Tris-Cl pH 7.0, 20% isopropanol, 24 hours): 85.3%
Conversion ([4]; 100 mM Tris-Cl pH 7.0, 20% isopropanol, 48 hours): 86.5%
Conversion ([4]; 100 mM Tris-Cl pH 7.0, 50% isopropanol, 24 hours): 93.8%
Conversion ([4]; 100 mM Tris-Cl pH 7.0, 50% isopropanol, 48 hours): 94.2%
Activity Day 5 ([5]; 0.0 M NaCl): 24 U/ml
Activity Day 10 ([5]; 0.0 M NaCl): 6 U/ml
Activity Day 20 ([5]; 0.0 M NaCl): 0 U/ml
Activity Day 40 ([5]; 0.0 M NaCl): 0 U/ml
Activity Start ([5]; 0.0 M NaCl): 105 U/ml
Activity Day 5 ([5]; 0.2 M NaCl): 101 U/ml
Activity Day 10 ([5]; 0.2 M NaCl): 7 U/ml
Activity Day 20 ([5]; 0.2 M NaCl): 0 U/ml
Activity Day 40 ([5]; 0.2 M NaCl): 0 U/ml
Activity Start ([5]; 0.2 M NaCl): 105 U/ml
Activity Day 5 ([5]; 0.5 M NaCl): 113 U/ml
Activity Day 10 ([5]; 0.5 M NaCl): 86 U/ml
Activity Day 20 ([5]; 0.5 M NaCl): 0 U/ml
Activity Day 40 ([5]; 0.5 M NaCl): 0 U/ml
Activity Start ([5]; 0.5 M NaCl): 105 U/ml
Activity Day 5 ([5]; 1.0 M NaCl): 115 U/ml
Activity Day 10 ([5]; 1.0 M NaCl): 119 U/ml
Activity Day 40 ([5]; 1.0 M NaCl): 78 U/ml
Activity Start ([5]; 1.0 M NaCl): 105 U/ml
duration of high stability on storage ([5]; storage at −20° C. with addition of glycerine, in particular 50%): at least 3 months
effect of addition of zinc ions to the prepared enzyme ([5]; zinc ions added to prepared enzyme): leads rapidly to its inactivation
activity with standard substrate [6]: 106 U/ml
Conversion to diol ([7]; enzyme-coupled): 82.4%
ee/de for the (S,S) enantiomer ([7]; enzyme-coupled): 100%
Conversion to diol ([7]; substrate-coupled): 10.6%
ee/de for the (S,S) enantiomer ([7]; substrate-coupled): 100%
spec. activity [8]: 55.4 U/mg
rel. activity [8, 11]: 77%
